The nanobody polyreactivity screen of Harvey et al. (2022)

Assay: yeast display, Sf9 membrane polyspecificity reagent, FACS + sequencing; frameworks hold sequencing errors
Method in brief: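 Sorting gates, low and high (top ~1%), were placed on anti-HA fluorescence to track expression and on streptavidin fluorescence to track reagent binding. A clone's polyreactivity label is taken from the gate it came out of. The reagent was 10% biotinylated, detergent-solubilized Sf9 membrane, applied for 1 hour at 4 °C to galactose-induced yeast display cells.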

Sequence	polyreactivity (PSR sort gate)
QVQLVESGGGLVQAGGSLRLSCAASGSTFGENAMGWYRQAPGKERELVAAINYSGGSTYYADSVKGRFTISRDNAKNTVYLQMNRLKPEDTAVYYCAAVNLPQLYYDYDYWGQGTQVTVSS	low polyreactivity
QVRLVESGGGLVQAGGRLRLSCAASGRIFSSYSMGWYRQAPGKERELVASISWSGVRTRYADSVKGRFTISRDNAKNTVYLQLNSLKPEDTAVYYCAAVVPYYYRSPSNHMGYWGQGTQVTVSS	high polyreactivity
QVQLVESGGGLVQAGGSLRLSCAASGIFGWNTMGWYRQAPGTERELVATISWGGGTTYYADSVKGRFTISRDNAKNTVYLQMNSLKPEDTAVYYCAKVYAVRIGLRYYYWGQGTQVTVSS	low polyreactivity
QVQLVESGGGLVQAGGSLRLSCAASGRISTFYAMGWYRQAPGKERELVAGIRWRGGSTYYADSVKGRFTISRDNAKNTVYLQMNSLKPEDTAVYYCNAVPRRRRYSRLGYWGQGTQVTVSS	high polyreactivity
QVQLVESGGGLVQAGGSLRLTCAASGRTFIVYAMGWYRQAPGKERELVAGITRGSTNYADSVKGRFTISRDNAKNTVYLQMNSLKPEDTAVYYCATEVYIWPWGTVYAFEYDYWGQGTQVTVSS	high polyreactivity
QVHLVESGGGLVQAGGSLRLSCAASGNTFQRYTMGWYRQAPGKERELVAAITWSGGNTYYADSVKGRFTISRDNEKNTVYLQMNSLKPEDTAVYYCNADYPTTAYDYWGQGTQVTVSS	low polyreactivity
QVQHVESGVGLVQAGGSLRLSCASSGLTFQYYSMGWYRQAPGKERELVAAISRRGGSTYYADSVKGRFTISRDNAKNTVYLQMNSLKPEDTAVYYCARYSYRGTNVRYDYWGQGTQVTVSS	high polyreactivity
QVQLVESGGGLVQAGGSLRLSCAASGSIFHPYAMGWYRQAPGKERELVAAISKSGGNTYYADSVKGRFTISRDNAKNTVYLQMNSLKPEDTAVYYCAALDYWGQVTQVTVSS	low polyreactivity
QVLLVESGGGLVQAGGSLSLSCAASGLIFVNAMGWYRQAPGKEREFVAAITYSTGSTYYADSVKGRFTISRDNAKNTVYLQMNSLKPEDTAFYYCAKDRSGHGTERDDWGQGTQVTVSS	low polyreactivity
QLQLVESGGGLVQAGGSLRLSCAASGHIFDANVMGWSRQAPGKERELVAAISSGGRTKYADSVKGRFTISRDNAKNTVYLQMNSLKPEDTAVYYCAKKHFPLYDYWGQGTQVTVSS	low polyreactivity
HVQLVESGGGLVQAGGSLRLSCAASGIIFPIYAMGWYRQAARKERELVASISQSGASTYYADSVKGRFTISRDNAKNTVYLQMNSLNPEDTGVYYCAALNGVGPWQLSYEEFDYWGQGTQVTVSS	low polyreactivity
QVQLVESGGGLVQAGGSLRLSCAASGIIFYDYAMGWYRQAPGKERELVAAIDTGDSTYYADSVKGRFTISRDNAKKTVDLQMNSLKPEDTAVYYCAADYIFYTYIFYWGQGTQVTVSS	high polyreactivity
QVQLVESGGGLVQAGGSLRLSCAASGSIFGSNAMGWYRQARGKERELVASISKRGGSTYYADSVKGRFTISRDNAKNTVYVQMNSLKPEDTAVYSCAARSYYNGKISRVGYWGQGTQVTVSS	high polyreactivity
QVQLVESGGGLVQAGGSLRLSCAASGFTFVYYTMGWYRQAPGKERELVAAITSRGGNTYYADSVKGRFTISRDNAKNTVYLQMNSLKPEDTAVYYCAARRITTYYYWGQGTQVTVSS	high polyreactivity
QVQLVESGGGLVQAGGSLRLSCAASGRTFYFYAMGWYRQAPGKERELVASISWSGGRTYYADSVKGRFTISRDNAKNTVYLQMNSLKPEVTSVYYSAAALWTGYSWGQATQVTVSS	low polyreactivity
QVHLVESGGGLVQAGGSLRLSCAASGLIFGDYAMGWYRQAPGKERELVAAITGSVTRRYYADSVKGRFTISRDNAKNTVYLQMNSLKPEDTAVYYCATVGYPYTLWHQMDYWGQGTQVTVSS	low polyreactivity
QVQLQEIGGCLVQAGDSHRLSCAASGNIFPFTDMGWNRQAQGKERELVAAINAGSTTYYADSVKGRFTISRDNAKITVYLQLISLKPEDTAVYYCAVYYLGSGTFCYWGQGPQVTVSS	high polyreactivity
QVQLVESGGGLVQAGGSLRLSCAASGRTISKNTMGWYRQAPGKERELVAAISSSGGSTNYADSVKGRFTISRDNAKNTVYLQMNSLKPEETAVYYCAADPWRFRSRPVNYWGQGTQVSVSS	high polyreactivity
QVQLVESGGGLVQAGGSLRLICAASGRTFPRYTMGWYRQEPGNERELVAAISWRGGRTYYADSVKGRFTISLDNAKNTVYLLMNSLKPEDTAVYYCNAQKRDGSMGYWGQGTQVTVSS	high polyreactivity
QVQLVESGGGLVQAGGSLRLTCAASGSIFDSNAMGWYRQAPGKERELVADIRGIGGSTFYADSVKWRFTISRDNAKNTVYLQMNSLKPEDTAVYYCAAVGKSPSRFGYWGQGTQVTVSS	low polyreactivity
QVQLVESGGGLVQAGGSLRLSCASSGSTFPSNAMGWYRQAPGKERELVAAISRSGGSTYYADSVKGRFTISRDTAKNTVYLQMNSLKPEDTAVYYCAVQVRPNSGGTRIHRCGYDYWGQGTQVTVSS	low polyreactivity
LVQLVESGGGLVQAGGSLRLSCAASGRIIPPNAMGWYRQAPGTERELVATITWGVGSTYYADSVKGRFTISRDNAKNTVYLQMNSLKPEDTAVYYCYARRFRPYGFYYWGQGTQVTVSS	high polyreactivity

Sequence	polyreactivity (PSR sort gate)
QVQLVESGGGLVQAGGSLRLSCAASGNTLAANAMGWYRQAPGKERELVAAITYSGGSTYYADSVKGRFTISRDNSKNTVYLQMNSLKPLDTAVYYCAAEGYYSNYHYWGQGTQVTVSW	low polyreactivity
QVQLVESGGGLVQAGGSLRLSCAASGLTFVYNNMGWYRQAPGKERELVAAINWSGGRTYYADSVKGRFTISRDNAKNTVYLQMNSLKPEDTAVYYCAALYVPNTPTYKYDYWGQGTQVTVSS	low polyreactivity
QVQLVESGGGLVQAGGSLRLSCAASGRTFWSNAMGWYRQAPGKERELVAAISGGARTNYADSVKGRFTISRDNAKNTVYLQMNSLKPEDTAVYYCAATPRYWQSRYDYWGQGTQVTVSS	high polyreactivity
QVQLVESGGGLVQAGGSLRLSCAASGFTFTRYAMGWYRQAPGKERELVAAISSCGDTYYADSVKGRFTISRDNAKNTVYLQMNSLKPEDTAVYYCAADQSSLDYGNDYWGQGTQVTVSS	low polyreactivity
QGQLVESGAGLVQAGGSLRLSCAASGFIFYDYVMGWYRQAPGKERELVAAITGSGGGTYYADSVKGRFTISRDNAKNTVYLQMNSLKPEDTAVYYCAADYISVYGYEYWGQGTQVTVSS	high polyreactivity
QVQLVESGGGLVQAGGSLRLSCAASGRTLQIYVMGWYRQAPGKERELVASITGRGGSTYYADSVKGRFTISRDTAKNTVYLQMNSLKPEDTAVYYFARRYYRLDYWGQGTQVTVSS	high polyreactivity
QVQLVESGGGLVQAGGSLRLSCAASGRIFTSNAMGWYRQAPGKERELVAAISSSGTRTYYADSVKGRFTISRDNAKNTVYLQMNSHKPEDTAVYYCASGAPSLKYEYWGQGTQVTVSS	high polyreactivity
QVQLVESGGGLVQAGGSLRLSCAASGLTLTYYAMGWYRQAAGKERELVAAISSSGGSTYYADSVKGRFTISRDNAKNTVYLQMNSLKPEDTAVYYCAATRVSWTGRDDYWGQGTQVTVSS	high polyreactivity
QDQLVESGGGLVQAGGSLRLSSAGSGSIFFSYAMGWYRQAPGKEREFVAAINSDDASTYADSVKGRFTISRDNAKNTVYLQMNSLKPEDTAVYYCAASFLWSWYDYWGQGTQVTVSS	low polyreactivity
QVQLVESGGGLVQAGGRLRLSCAASGSIFFAYAMGWYRQAPGKERELVAAITSGVSTNYADSVKGRFTISRDNAKNTVYLQMNSLKPEDTAVYYCNADFDYGFDAGVAVQVVIHDYWGQGTQVTVSS	low polyreactivity
QVQLVESGGGLVQAGGSIRLSCAASGSTSYIKVMGWYRQAPGKEREMVATISSSGGNTYYADSVKGRFTISRDNAKNTVYLQMNSLKPEDTAVYYCAAKVRVWYYRMDSWGQCTQVTVSS	low polyreactivity
QVQLLESGGGLVQAGGSLRLSCAASGSTFKKNAMGWYRQAPGKETELVAAISGIGTRTSYADSVKGRFTISRDNAKNTVYLQMNSLKPEDTAVYYCAARYYGFPSTLKYDYWGQGTQVTVSS	high polyreactivity
QVQLVESGGGLVQAGGSLRLTCAASGRIFLINPMGWYRQAPGKDRELVAGIRGRTGSTNYADSVKGRFTISRDNAKNTVYLQMNRLKPEDTAVYYCAARFSVQDGGPYAYDYWGQGTQVTVSS	low polyreactivity
QVQLVESGGGLVQAGGSLRLSCAASGRTLRYYAMGWYRQAPGKERELVATITGSGGSTYYADSVKGRFTISRDNAKNTVYLQMNSLKPEDTAVYYCNARKVRYPYRWYDYWGQGTQVTVSS	high polyreactivity
QVQLVESGGGLVQAGGRLRLSCAASGSTFYLNAMGWYRQAPGQERELVAAINGGGSTNYADSVKGRFTISRDNAKNTVYLQRNSLKPEDTAVYYCAAETSYANRDRFDYWGQGTQVTVSS	low polyreactivity
QVQLVESGGGLVQAGGSLRLSCAASGSILYYYAMGWYRQAPGKERELVAAISWSGASTYYADSVKGRFTISRDNAKNTVYLQMNSLKPEDTAVYDCATSYTKQGFRYYYWGQGTQVTVSS	high polyreactivity
QVQLEESGGGLVQAGGSLRLSCPASGRTSYGNTMGTYRQAPGKERELVATISGGGSTNYADSVKGRFTISRDNAKNTVYLQMNSLKPEDTAVYYCAARRYPFPGYRYYFWGQGTQVTVSS	high polyreactivity
QVQLVESGGGLVQAGGSLRLSCAASGRTFYINAMGWYRQAPGKERELVATISRSGGDTYYADSVKGRFTISRDNAKNTVYLQMNSLKPEDTAVYYCNARQYYYRSGAYASRYLYNYWGQGTQVTVSS	high polyreactivity
LVQLVESGGGLVQAGGSLRLSCAASGSTFIPYAMGWYRQAPGKERELVAAIRGGDGSTYYADSVKGRFTISRDNAKNTVYLQMNSLKPEDTAVYYCAADTVITAYFYRFWRYNYWGQGTQVTVSS	low polyreactivity
QVQLVESGGGLVQAGGSLRLICAASGRTFRGNAKGCYRQAPGKERELVAAISGRGTNTYYADSVKGRFTISRDNAKNTVYLQMNSLKPEDTAVYYCAKVFYSYRDHYDYWGQGTQVTVSS	high polyreactivity
QVQLVESGGGLVQAGGSLRLSCAASGRTFWYYAMGWYRQAPGKERELVAAISYSGDGTYYADSVKGRVTISRDNAKNTVYLPMHSLKPEDTAVYYCAAEWYEPTLPTAWSEYEYWGQGTQVTVSS	high polyreactivity
